The text below walks through data of paper doi:10.1101/2025.05.13.653593 (bioRxiv, 2025).

In the assay the target is T1, EccB5 (encoded by the Rv1782c gene), spotted on the Mtb proteome microarray (Mycobacterium tuberculosis, UniProt P9WNQ9 1-506).
T1 sequence: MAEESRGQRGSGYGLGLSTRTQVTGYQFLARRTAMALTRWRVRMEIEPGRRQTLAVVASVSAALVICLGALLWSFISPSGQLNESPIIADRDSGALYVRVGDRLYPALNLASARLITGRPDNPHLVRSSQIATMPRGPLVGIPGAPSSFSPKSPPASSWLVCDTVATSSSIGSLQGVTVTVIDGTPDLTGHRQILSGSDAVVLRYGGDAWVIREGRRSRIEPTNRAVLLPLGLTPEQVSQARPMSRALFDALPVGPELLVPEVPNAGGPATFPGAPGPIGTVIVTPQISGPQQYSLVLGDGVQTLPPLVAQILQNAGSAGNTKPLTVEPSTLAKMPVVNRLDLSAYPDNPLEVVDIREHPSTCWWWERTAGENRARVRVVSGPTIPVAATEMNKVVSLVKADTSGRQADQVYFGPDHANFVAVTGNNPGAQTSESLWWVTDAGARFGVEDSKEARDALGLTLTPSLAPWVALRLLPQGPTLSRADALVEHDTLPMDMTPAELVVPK
Kind of assay: peptide or protein array. The settings on record: both partners purified.

B1: recombinant human GSDMD protein (natural protein, UniProt P57764 1-484, looked up)
chain: MGSAFERVVRRVVQELDHGGEFIPVTSLQSSTGFQPYCLVVRKPSSSWFWKPRYKCVNLSIKDILEPDAAEPDVQRGRSFHFYDAMDGQIQGSVELAAPGQAKIAGGAAVSDSSSTSMNVYSLSVDPNTWQTLLHERHLRQPEHKVLQQLRSRGDNVYVVTEVLQTQKEVEVTRTHKREGSGRFSLPGATCLQGEGQGHLSQKKTVTIPSGSTLAFRVAQLVIDSDLDVLLFPDKKQRTFQPPATGHKRSTSEGAWPQLPSGLSMMRCLHNFLTDGVPAEGAFTEDFQGLRAEVETISKELELLDRELCQLLLEGLEGVLRDQLALRALEEALEQGQSLGPVEPLDGPAGAVLECLVLSSGMLVPELAIPVVYLLGALTMLSETQHKLLAEALESQTLLGPLELVGSLLEQSAPWQERSTMSLPPGLLGNSWGEGAPAWVLLDECGLELGEDTPHVCWEPQAQGRMCALYASLALLSGLSQEPH
notes: also called gasdermin D; recombinant GSDMD
B1: the binding result is reported as “binds”.
